Literature values, collected in PMC5133818.

Biological target: cytochrome c (Homo sapiens) (UniProt P99999)
Assay: SPR

Sequence of UniProt P99999 (P99999 2-105): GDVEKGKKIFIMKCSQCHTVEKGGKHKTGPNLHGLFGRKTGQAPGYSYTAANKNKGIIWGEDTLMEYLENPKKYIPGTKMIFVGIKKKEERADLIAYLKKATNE

neuroglobin (from UniProt Q9NPG2)
Kd: 200 µM
